{"source": "patent US20220356229A1", "about": "(published 2022)"}
{"target": "SARS-CoV-2 Spike (S) protein, wild type, full length (SARS-CoV-2, UniProt P0DTC2 14-1208)", "units": {"bead binding signal (fold over isotype)": "fold over isotype"}}
{"binder": "antibody 260 (antibody, V domains shown) VH: EVQLVESGGGLVQPGRSLRLSCAASGFTFDYYAMHWVRQAPGKGLEWVSGISWNSGTIGYADSVKGRFTISRDNAKNSLYLQMNSLRAEDTALYYCAKDSRPSGRYYYGMDVWGQGTTVTVSS VL: not shown", "bead binding signal (fold over isotype)": 724}
{"binder": "antibody 276 (antibody, V domains shown) VH: QVQLQESGPGLVKPSQTLSLTCTVSGDSISSGGYYWSWIRQHPGKGLEWIGYIYYSGSAYYNPSLKSRVTISLDTSKNQFSLKLSSVTAADTAVYYCARDSVAGFSIFDYWGQGTLVTVSS VL: SSELTQDPAVSVALGQTVRITCQGDSLRSYYASWYQQKPGQAPVRVIYGKNNRPSGIPDRFSGSSSGNTASLTITGAQAEDEADYYCNSWDSSGNHVVFGGGTKLTVL", "bead binding signal (fold over isotype)": 748}
{"binder": "antibody 265 (antibody, V domains shown) VH: EVQLVQSGAEVKKPGATVKVSCKFSGDTFSHYYIHWVQQAPGKGLEWMGLVDPQDGESEYAQKFQGKVTITADTSIDTSYLEVTSLRFDDTAFYFCATRGMSGAFDRWGQGTLVTVSS VL: DIVMTQSPDSLAVSLGERATINCKSSQSILSTSNNKNYLAWYQQKPGQPPKLLIYWASTRESGVPDRFSGGGSGTDFTLTISSLQAEDVAVYYCQQYYRTAYTTPIYTFGQGTKLEIK", "bead binding signal (fold over isotype)": 1280}
{"binder": "antibody 273 (antibody, V domains shown) VH: QVQLVQSGAEVKKPGASVKVSCKVSGYTLTELSMHWVRQAPGKGLEWMGGFDPEDGETIYAQKFQGRVTMTEDTSTDTAYMELSSLRSEDTAVYYCATAPGYYDSSAPQPINWFDPWGQGTLVTVSS VL: QSALTQPASVSGSPGQSITISCTGTSSDVGSYNLVSWYQQHPGKAPKLMIYEVSKRPSGVSNRFSGSKSGNTASLTISGLQAEDEADYYCCSYAGSSTLVFGGGTKLTVL", "bead binding signal (fold over isotype)": 924}
{"binder": "antibody 301 (antibody, V domains shown) VH: QVQLVQSGAEVKKPGASVKVSCKVSGYTLTELSMHWVRQAPGKGLEWMGGFDPEDGETIYAQKFQGRVTMTEDTSTDTAYMELSSLRSEDTAVYYCATAFCGGDCYPPDALDIWGQGTMVTVSS VL: DIQMTQSPSSVSASVGDRVTITCRASQGISSWLAWYQQKPGKAPKLLIYAASSLQSGVPSRFSGSGSGTDFTLTISSLQPEDFATYYCQQANSFPLTFGGGTKVEIK", "bead binding signal (fold over isotype)": 865}
{"binder": "antibody 266 (antibody, V domains shown) VH: QVQLVESGGGVVQPGRSLRLSCAASGFNLSNYAMHWVRQPSGKGLEWVSLISYDGSIKYYTDSVKGRFTVSGDNSKNTLFLQMNSLRPDDSALYYCVRGGVSGPNSFDMWGQGTTVTVSS VL: DVVMTQSPLSLPVTLGQPASISCRSSQSLVYSDGNTYVNWFQQRPGQSPRRLIYQVSIRASGVPDRFSGSGSGTDFALKISRVEAEDVGVYYCMQGTHWPVTFGQGTKVEIK", "bead binding signal (fold over isotype)": 473}
{"binder": "antibody 264 (antibody, V domains shown) VH: QVHLVESGGGVVQPGRSLRLSCAASGFTLTSYAMHWVRQAPGKGLEWVALISYDGSVKKYAESVKGRITVSGDNSRNTLHLQINTLRADDTAVYYCVRGGVSGPNSFDLWGQGTMVTVSS VL: DVVMTQSPLSLPVTLGQPASISCRSSQSLEYSDGNTYVNWFQQRPGQSPRRLIYQVSNRASGVPDRFSGSGSGTDFTLQISRVEAEDVGIYYCMQGTHWPVTFGQGTKVEIK", "bead binding signal (fold over isotype)": 598}
{"binder": "antibody 303 (antibody, V domains shown) VH: QVQLVESGGGVVQPGRSLRLSCAASGFNLSSYAMHWVRQASGKGLEWVSLISYDGSIKYYADSVKGRFTVSGDNSKNMLFLQMNSLRADDSALYYCVRGGVSGPNAFDIWGQGTTVTVSS VL: not shown", "bead binding signal (fold over isotype)": 341}
{"binder": "antibody 295 (antibody, V domains shown) VH: QVQLQESGPGLVKPSQTLSLTCTVSGGSISSSDYYWSWIRQPPGKGLEWIGYIYYSGSTYYNPSLKSRVTISVDTSKNQFSLKLSSVTAADTAVYYCARVVGYCSSTSCYVDYWGQGTLVTVSS VL: EIVLTQSPATLSLSPGERVTLSCRASQSVSSYLAWYQQKPGQAPRLLIYDASNRATGIPARFSGSGSGTDFTLTISSLEPEDFAVYYCQQRSNWPPGLTFGGGTKVEIK", "bead binding signal (fold over isotype)": 599}
{"binder": "antibody 300 (antibody, V domains shown) VH: QVQLVESGGGVVQPGRSLTLSCAASGFTFSSYAMHWVRQAPGKGLEWVALISYDGNNKYYADSVKGRFTFSRDNSKNTLYLQMNSLRAEDTAVYYCARTNSGSYRTAFDYWGQGTLVTVSS VL: DIQMTQSPSTLSASVGDRVTITCRASQSISIWLAWYQQKPGKAPKLLIYKASSLESGVPSRFSGSGSGTEFTLTISSLQPDDFATYYCQQYNSLWTFGQGTKVEIK", "bead binding signal (fold over isotype)": 721}
{"binder": "antibody 281 (antibody, V domains shown) VH: not shown VL: QSALTQPASVSGSPGQSITISCTGTSSDVGSYNLVSWYQQHPGKAPKLMIYEVSKRPSGVSNRFSGSKSGNTASLTISGLQAEDEADYYCCSYAGSSTHVVFGGGTKLTVL", "bead binding signal (fold over isotype)": 570}
{"binder": "antibody 263 (antibody, V domains shown) VH: EVQLVQSGAEVKKPGATVKISCKVSGYTFTDYYMHWVQQAPGKGLEWMGLVDPEDGETIYAEKFQGRVTITADTSTDTAYMELSSLRSDDTAVYYCTTDLAFTIFGGRRGFDPWGQGTLVTVSS VL: DIQLTQSPSFLSASVGDRVTITCRASQGISSYLAWYQQKPGKAPKLLIYAASTLQSGVPSRFSGSGSGTEFTLTISSLQPEDFATYYCQQLNSYDFGQGTRLEIK", "bead binding signal (fold over isotype)": 722}
{"target": "SARS-CoV Spike protein (full length Spike, coupled to optically encoded beads) (SARS-CoV, UniProt P59594 14-1190)", "units": {"median fluorescence, fold over isotype": "fold over isotype"}}
{"binder": "anti-SARS-CoV-2 antibody 392 (antibody, V domains shown) VH: QVQLQESGPGLVKPSGTLSLTCAVSGGSISSSNWWSWVRQPPGKGLEWIGEIYHSGSTNYNPSLKSRVTISVDKSKNQFSLKLSSVTAADTAVYYCARGWRATLYGMDVWGQGTTVTVSS VL: QSALTQPASVSGSPGQSITISCTGTSSDVGSYNLVSWYQQHPGKAPKLMIYEVSKRPSGVSNRFSGSKSGNTASLTISGLQAEDEADYYCCSYAGSSTWVFGGGTKLTVL", "median fluorescence, fold over isotype": 1.08}
{"binder": "anti-SARS-CoV-2 antibody 395 (antibody, V domains shown) VH: QVQLVQSGSELKKPGASVKLSCQASGYTFSNHAMNWVRQAPGQGLEWMGWINTNTGNPTYAQGFTGRFVFSLDTSVGTAYLHISSLKAEDTAFYYCARASARPGVATNLDFWGQGTLVVVSS VL: DIQMTQSPSSLSASVGDRVTITCRTSQNIDNYLNWYQQKPGKAPNLLIYAASRLHSGVPSRFSGSGSGTDFTLIISSLQPEDLATYYCQQSYSNPLTFGPGTKVDIR", "median fluorescence, fold over isotype": 1.16}
{"binder": "anti-SARS-CoV-2 antibody 396 (antibody, V domains shown) VH: QVQLQQWGAGLLKPSETLSLTCAVYGGSFSGYYWSWIRQPPGKGLEWIGEIIHSGSTNYNPSLKSRVTISVDTSKNQFSLKLSSVTAADTAVYYSARRTGLLWFREGSYYFDYWGQGTLVTVSS VL: DIQMTQSPSSLSASVGDRVTITCRASQGIRNDLGWYQQKPGKAPKRLIYAASSLQSGVPSRFSGSGSGTEFTLTISSLQPEDFATYYCLQHNSYPLTFGGGTKVEIK", "median fluorescence, fold over isotype": 1.36}
{"binder": "anti-SARS-CoV-2 antibody 385 (antibody, V domains shown) VH: QVQLVESGGGVVQPGRSLRLSCAASGFTFSSYAIHWVRQAPGKGLEWVAVISYDGSNKYYADSVKGRFTISRDNSKNTLYLQMNSLRAEDTAVYYCARPRSGSYWGAFDIWGQGTMVTVSS VL: QSVLTQPPSVSGAPGQRVTISCTGSSSNIGARYDVHWYQQLPGTAPKLLIYGNSNRPSGVPDRFSGSKSGTSASLAITGLQAEDEADYYCQSYDSSLRGVFGGGTKLTVL", "median fluorescence, fold over isotype": 59.6}
